From the supplement of paper PMC9170038

Each sequence was assayed on K4 kissing-loop RNA reporter (assay: apparent KD of K4 kissing-loop reporter; higher = weaker reporter binding). Settings: Eterna round: R107; input ligand: arginine 13.2 mM.
Method: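 RNA-MaP round R107: designed RNA switches with theophylline, tryptophan, arginine or FMN aptamers are transcribed on-chip within common flanks. They are titrated with a labelled K4 kissing-loop RNA reporter in RNA-MaP buffer (100 mM Tris pH 7.5, 80 mM KCl, 4 mM MgCl2), without ligand or with the indicated ligand. Median apparent KD per design.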
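Note: bound reporter read as fluorescence of individual clusters on recovered sequencing chips by microscopy, with normalized cluster intensities fitted with a binding model.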

Row | Sequence | apparent KD of K4 kissing-loop reporter [µM]
1 | GGCAUGGUGACGCGGCUGCCAUGCACUUGGGAGGAUAUGUUUCGUGACAGAAGGCCCAGUGAUGUUGGGUCUGUUCAAAAGGACU [Lerere] | 0.135
2 | ACAGGAUCGAAGAUCCUGAGCAGUCAGGUCCGAGGACCGGUACGGCCGCCACUCGGAGUGAUGUUCCGAAGACUGCAAAAUAAAA [#SwitchBubble 4] | 0.455
3 | UGACUGGACUGAAGGAGCGCUAAAACUCCUAGUGAUGUUGGGAAAUAAGAGACAAAGUCUCAGCAGGUAGGUCGCAGUCUAGUCU [ArgBS 24 #SwitchBubble #StaticStem] | 0.462
4 | CUUUGAACAUGAGUGAUGUUCAUGUCCGAAGGAGCGUGCGAAAGCACAGGUAGGUCGCGGACGUGAGUGAUGUUCAUGUGAGCGA [KL-XArg-A11 #analogue] | 0.134
5 | UACAAACGUAGUGAUGUUACGUACUCUGAUACCAGACAAGUGUAAGUCCCUUGGCAGCAGUCAUUUUGCUUAUUAUUUUCUCAAA [JR_ExcTheophyA_Sub019] | 0.0881
6 | GUGGGCAUAGCAGGAUAUCCAUAUUAACAGGAGUCCUCGCCAGUGAUGUUGGAAAGGUACCGGAGUGGAGAAGGGCUCCUACGUA [Anbiratien] | 0.782

Same assay, conditions: Eterna round: R107; input ligand: none

Row | Sequence | apparent KD of K4 kissing-loop reporter [µM]
7 | UUUUUCGCGUUUGAUACCAGCAGAGUUGUUCGUGUCUGGAACAUGAGUGAUGUUCAUGUCUGCCCUUGGCAGCAAACGGGAGAAG [KL-XTheo-B13] | 0.103
8 | GGGUGGCAGGCGGCCGCCACUCUGAGCACCCACUGAGUGAUGUUCGUGGCGUAAGCCUGUUCGUAGAGGACCGGGUUUGUUGUUC [Exclusion Tryptophan B GF 15] | 0.3
9 | GGUGACAACCAGAGGUGAUGUAUAGAAUAGCGAGGACCGGUACGGCCGCCACUCGUGAAGAGAAAGGAGUGAUGUUCCGUAAUGG [Kazoo C5] | 0.453
10 | GCAGUGAUGUUGCGCAGGUACAGUGGAGUGCGAGGACCGGUACGGCCGCCACUCGUACAGAACUAGCUAAUAUAUGGAUAGGUGA [VIII] | 0.315
11 | UGUUAUGGGUGAGGAUAUGCUGACGAUGCGGGUGCGAGUGAUGUUGGUGUGGCUGGUGUCGUUUGUGCAGAAGGCACGCUCGUGG [BDazzled] | 0.934
12 | UGUACCGAGUCAGGAUAUCAUAAUAAUGCAGUGAUGUUGCAAUAACGACUGACAAAGUCGGUCGAUUGAGAAGGGACUUGGUACU [FmnBS 6 #SwitchBubble #StaticStem] | 0.129
13 | GCGAUUCAGUGAUGUUGGAAAUACAGGGAUACCAGCCGAAAAUAAGGCCCUUGGCAGCUUAAUAGGAAAGAACUAAGAAAGACGC [Theophylline A Same State; Euphoria Solution 3] | 0.671
14 | UUAGAGAUCUCAGGAUAUGAGUGAUGUUGGUAUCAAGAUCUGAGAUAGAAUUCUAUCUCAGAUCAAUCAGAAGGGAGAUCUCAUU [AK2.1 Exc FMN B] | 0.534
15 | UGAUAGGACAGAAGGAGCGGAAGUGAUGUUUCCAAAAGGUAAAGGUGUCAAAAGACACCCUUCCAGGUAGGUCGCUGUCCUAUCU [ArgBX 12 #Palindromic #SwitchBubble #StaticStem] | 0.113
16 | GCAUAUACGAGAAGGAGCGUGCAUGACGAAUUAAUCAUCGACCUUAGUGAUGUUAAGGACGCACAGGUAGGUCGCUCGUGUAUGC [#04 K4 Arginine B Same State] | 0.347
17 | GUUACGCAUGGAAGGAGCGCUCUCCGGCUUAAUAACACAGUGAUGUUGUGAAUUUGCCGAAAGCAGGUAGGUCGCCAUGUGUAAC [Ex Arginine B K4 10] | 0.453
18 | UCCUGCAAUCGACCACGAAAGUGGAUUGAUACCAGAGUCGAAAGACUCCCUUGGCAGCGAGUGAUGUUCGAAGCAGGUAAAUAAA | 0.539
19 | UAACGGCCCAGUGAUGUUGGGUGGAGGCGGCGAGGACCGGUACGGCCGCCACUCGGCGCACAGGCGGAGUGAUGUUGCGCGUAAA [Same State Tryptophan A GF 13] | 0.319
20 | AAAUAAAGCAGUCAUCCAGUGAUGUUGGAAGGAGCGUGCGAAAGCACAGGUAGGUCGCCAAAACCUAAUAAUGGCUGCUAAAUAA [#SwitchBubble 2 #K4Early] | 0.176
21 | GUAUCGCUAGGAGGAUAUUUCAAAUCGCCAAUAAAUGGUGAUACGGAGUGAUGUUCCGAUUUACGGAAAGAAGGCCUAGUGAUAC [FMN B 6] | 0.322
22 | UGUCAUUGGUCUGAUACCAGCUGAUCGGAAACGAUCUUGCUGGAGUGAUGUUCCAAGUAAAGCCCUUGGCAGCAGACCGAUGACU [TheoBS 9 #SwitchBubble #StaticStem] | 0.0706
23 | GGUAGCAUGGCGGCCGCCACUUACUUCAAUAGGAGUGAUGUUCCUAUUACUAGUAGUGAAAUAAUAAGGACCGGGCCAUGCUACC | 0.0952
24 | AAACAUCACUACUUCUUCGUCCUAGAAGACUAGGAUAUCAGGAAACUGAGAAGGAGUCUCUGCAGUGAUGUUGCAGCUAGGACGA [[K]'-[F2]'-[F1]'-[F1]-[F2]-[K1]-[K2]-[F]''_Design2] | 0.194
25 | AAGCAGUCCCUUGUAGUCAUCGAAGAUGAACGAGGACCGGUACGGCCGCCACUCGGAGUGAUGUUCCGAAGGCUGCAAAAUAAAA [MatMod 19 - Jieux - Exclusion - Tryptophan A] | 0.135
26 | AAUUUAUAUUUAUUCUUUAAAUGUUCAGAAGGAGCGUGAAUUAUCACAGGUAGGUCGCUGGGCUAGUGAUGUUGGCUAUAUACUA [whbob_Ex_Arginine_A_2t125] | 0.162
27 | GGACGACAGGCGGCCGCCACUCAAAGCAGCCAGCGAGUGAUGUUCGUGGCGGAGUGAUGUUCCUAGAGGACCGGGUCUGCAGUUC [Same State Tryptophan B GF 18] | 0.468
